Source: US20100080803A1
Where no end group is shown, it is not given here.

Molecular target: a seven trans-membrane receptor
Assay: cell-based or functional assay

- half-saturation effect of the peptide on the decrease in cell area of A7R5 cells with 5 nM bradykinin: 9.35 µM
- increase of rat uterine contraction in the presence of oxytocin (isometric tissue bath, 100 µM peptide): 30%
Binder: AAHLPAEFTPAVHASLDKF-NH2 [2.022 kDa peptide, amino acids 110-128 of α-chain hemoglobin (SEQ ID No: 9)]
